Assay results published in PMC10786891, “Massively parallel profiling of RNA-targeting CRISPR-Cas13d”.

T1: EsCas13d, nuclease-dead (Eubacterium siraeum, UniProt B0MS50, R295A;H300A;R849A;H854A)
T1 sequence: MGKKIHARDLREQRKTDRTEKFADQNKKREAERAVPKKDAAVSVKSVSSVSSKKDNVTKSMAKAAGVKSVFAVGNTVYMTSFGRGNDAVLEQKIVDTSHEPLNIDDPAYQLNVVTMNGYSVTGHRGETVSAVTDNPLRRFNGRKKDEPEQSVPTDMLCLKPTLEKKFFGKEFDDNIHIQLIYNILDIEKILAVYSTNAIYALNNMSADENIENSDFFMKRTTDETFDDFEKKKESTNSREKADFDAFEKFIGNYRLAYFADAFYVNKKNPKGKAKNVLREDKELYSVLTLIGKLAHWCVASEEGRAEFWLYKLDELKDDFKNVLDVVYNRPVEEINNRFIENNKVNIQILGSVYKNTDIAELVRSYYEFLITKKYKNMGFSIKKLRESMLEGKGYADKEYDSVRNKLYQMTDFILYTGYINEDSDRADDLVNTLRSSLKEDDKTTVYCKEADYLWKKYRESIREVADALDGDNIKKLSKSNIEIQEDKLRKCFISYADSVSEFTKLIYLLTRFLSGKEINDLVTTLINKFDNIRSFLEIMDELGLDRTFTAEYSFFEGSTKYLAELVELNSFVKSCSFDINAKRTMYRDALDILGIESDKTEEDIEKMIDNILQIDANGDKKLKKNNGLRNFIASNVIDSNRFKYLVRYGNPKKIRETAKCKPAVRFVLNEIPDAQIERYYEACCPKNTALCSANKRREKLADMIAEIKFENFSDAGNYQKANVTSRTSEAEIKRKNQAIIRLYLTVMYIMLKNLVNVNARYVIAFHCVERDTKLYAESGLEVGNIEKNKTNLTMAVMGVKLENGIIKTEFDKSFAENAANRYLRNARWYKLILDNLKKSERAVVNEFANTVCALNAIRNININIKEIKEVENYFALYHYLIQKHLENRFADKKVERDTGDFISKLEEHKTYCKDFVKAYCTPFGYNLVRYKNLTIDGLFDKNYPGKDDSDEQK

B1: target 1 G5A,C6U (mixed)
RNA 1: CACCCGUGCAAAAAUGCAGGGGUCUAAAACUGAGCGGAUAACCUCUCUAUGG
RNA 2: GGGAAUGGAUCCACAUCUACGAAUUCGUACCAUAGAGAGGUUAUCUACUCACCGAGAUCGGAAGAGCACACGU
B2: target 1 insC 3' of 22 (mixed)
RNA 1: CACCCGUGCAAAAAUGCAGGGGUCUAAAACUGAGCGGAUAACCUCUCUAUGG
RNA 2: GGGAAUGGAUCCACAUCUACGAAUUCGUACCCAUAGAGAGGUUAUCCGCUCACCGAGAUCGGAAGAGCACACGU
B3: target 1 U8C,G13A (mixed)
RNA 1: CACCCGUGCAAAAAUGCAGGGGUCUAAAACUGAGCGGAUAACCUCUCUAUGG
RNA 2: GGGAAUGGAUCCACAUCUACGAAUUCGUACCAUAGAGAAGUUACCCGCUCACCGAGAUCGGAAGAGCACACGU
B4: target 1 insC 3' of 17,insA 3' of 7 (mixed)
RNA 1: CACCCGUGCAAAAAUGCAGGGGUCUAAAACUGAGCGGAUAACCUCUCUAUGG
RNA 2: GGGAAUGGAUCCACAUCUACGAAUUCGUACCAUAGCAGAGGUUAUCACGCUCACCGAGAUCGGAAGAGCACACGU
B5: target 1 insU 3' of 17,insG 3' of 3 (mixed)
RNA 1: CACCCGUGCAAAAAUGCAGGGGUCUAAAACUGAGCGGAUAACCUCUCUAUGG
RNA 2: GGGAAUGGAUCCACAUCUACGAAUUCGUACCAUAGUAGAGGUUAUCCGCUGCACCGAGAUCGGAAGAGCACACGU
B6: target 1 del15,del20 (mixed)
RNA 1: CACCCGUGCAAAAAUGCAGGGGUCUAAAACUGAGCGGAUAACCUCUCUAUGG
RNA 2: GGGAAUGGAUCCACAUCUACGAAUUCGUACCUAGAAGGUUAUCCGCUCACCGAGAUCGGAAGAGCACACGU
B7: target 1 G12U,C22G (mixed)
RNA 1: CACCCGUGCAAAAAUGCAGGGGUCUAAAACUGAGCGGAUAACCUCUCUAUGG
RNA 2: GGGAAUGGAUCCACAUCUACGAAUUCGUAGCAUAGAGAGUUUAUCCGCUCACCGAGAUCGGAAGAGCACACGU
B8: target 1 insC 3' of 10,insA 3' of 10 (mixed)
RNA 1: CACCCGUGCAAAAAUGCAGGGGUCUAAAACUGAGCGGAUAACCUCUCUAUGG
RNA 2: GGGAAUGGAUCCACAUCUACGAAUUCGUACCAUAGAGAGGUUCAAUCCGCUCACCGAGAUCGGAAGAGCACACGU
B9: target 1 C6U,G17A (mixed)
RNA 1: CACCCGUGCAAAAAUGCAGGGGUCUAAAACUGAGCGGAUAACCUCUCUAUGG
RNA 2: GGGAAUGGAUCCACAUCUACGAAUUCGUACCAUAAAGAGGUUAUCUGCUCACCGAGAUCGGAAGAGCACACGU
B10: target 1 insA 3' of 21,insU 3' of 14 (mixed)
RNA 1: CACCCGUGCAAAAAUGCAGGGGUCUAAAACUGAGCGGAUAACCUCUCUAUGG
RNA 2: GGGAAUGGAUCCACAUCUACGAAUUCGUACCAAUAGAGAUGGUUAUCCGCUCACCGAGAUCGGAAGAGCACACGU
B11: target 1 C4A,A18G (mixed)
RNA 1: CACCCGUGCAAAAAUGCAGGGGUCUAAAACUGAGCGGAUAACCUCUCUAUGG
RNA 2: GGGAAUGGAUCCACAUCUACGAAUUCGUACCAUGGAGAGGUUAUCCGAUCACCGAGAUCGGAAGAGCACACGU
B12: target 1 insG 3' of 14,insA 3' of 13 (mixed)
RNA 1: CACCCGUGCAAAAAUGCAGGGGUCUAAAACUGAGCGGAUAACCUCUCUAUGG
RNA 2: GGGAAUGGAUCCACAUCUACGAAUUCGUACCAUAGAGAGGAGUUAUCCGCUCACCGAGAUCGGAAGAGCACACGU
B13: target 1 insG 3' of 14,insU 3' of 9 (mixed)
RNA 1: CACCCGUGCAAAAAUGCAGGGGUCUAAAACUGAGCGGAUAACCUCUCUAUGG
RNA 2: GGGAAUGGAUCCACAUCUACGAAUUCGUACCAUAGAGAGGGUUAUUCCGCUCACCGAGAUCGGAAGAGCACACGU
B14: target 1 A18U,C21A (mixed)
RNA 1: CACCCGUGCAAAAAUGCAGGGGUCUAAAACUGAGCGGAUAACCUCUCUAUGG
RNA 2: GGGAAUGGAUCCACAUCUACGAAUUCGUACAAUUGAGAGGUUAUCCGCUCACCGAGAUCGGAAGAGCACACGU
B15: target 1 G5U,U10A (mixed)
RNA 1: CACCCGUGCAAAAAUGCAGGGGUCUAAAACUGAGCGGAUAACCUCUCUAUGG
RNA 2: GGGAAUGGAUCCACAUCUACGAAUUCGUACCAUAGAGAGGUAAUCCUCUCACCGAGAUCGGAAGAGCACACGU
B16: target 1 insA 3' of 6,insU 3' of 1 (mixed)
RNA 1: CACCCGUGCAAAAAUGCAGGGGUCUAAAACUGAGCGGAUAACCUCUCUAUGG
RNA 2: GGGAAUGGAUCCACAUCUACGAAUUCGUACCAUAGAGAGGUUAUCCAGCUCAUCCGAGAUCGGAAGAGCACACGU
B17: target 1 G17C,C22A (mixed)
RNA 1: CACCCGUGCAAAAAUGCAGGGGUCUAAAACUGAGCGGAUAACCUCUCUAUGG
RNA 2: GGGAAUGGAUCCACAUCUACGAAUUCGUAACAUACAGAGGUUAUCCGCUCACCGAGAUCGGAAGAGCACACGU
B18: target 1 insA 3' of 4 (mixed)
RNA 1: CACCCGUGCAAAAAUGCAGGGGUCUAAAACUGAGCGGAUAACCUCUCUAUGG
RNA 2: GGGAAUGGAUCCACAUCUACGAAUUCGUACCAUAGAGAGGUUAUCCGCAUCACCGAGAUCGGAAGAGCACACGU
B19: target 1 U3G,U8C (mixed)
RNA 1: CACCCGUGCAAAAAUGCAGGGGUCUAAAACUGAGCGGAUAACCUCUCUAUGG
RNA 2: GGGAAUGGAUCCACAUCUACGAAUUCGUACCAUAGAGAGGUUACCCGCGCACCGAGAUCGGAAGAGCACACGU
B20: target 1 insC 3' of 11,insC 3' of 9 (mixed)
RNA 1: CACCCGUGCAAAAAUGCAGGGGUCUAAAACUGAGCGGAUAACCUCUCUAUGG
RNA 2: GGGAAUGGAUCCACAUCUACGAAUUCGUACCAUAGAGAGGUCUACUCCGCUCACCGAGAUCGGAAGAGCACACGU
B21: target 1 G5A,G13A (mixed)
RNA 1: CACCCGUGCAAAAAUGCAGGGGUCUAAAACUGAGCGGAUAACCUCUCUAUGG
RNA 2: GGGAAUGGAUCCACAUCUACGAAUUCGUACCAUAGAGAAGUUAUCCACUCACCGAGAUCGGAAGAGCACACGU
B22: target 1 del9,del20 (mixed)
RNA 1: CACCCGUGCAAAAAUGCAGGGGUCUAAAACUGAGCGGAUAACCUCUCUAUGG
RNA 2: GGGAAUGGAUCCACAUCUACGAAUUCGUACCUAGAGAGGUUUCCGCUCACCGAGAUCGGAAGAGCACACGU
B23: target 1 C6A,C22A (mixed)
RNA 1: CACCCGUGCAAAAAUGCAGGGGUCUAAAACUGAGCGGAUAACCUCUCUAUGG
RNA 2: GGGAAUGGAUCCACAUCUACGAAUUCGUAACAUAGAGAGGUUAUCAGCUCACCGAGAUCGGAAGAGCACACGU
B24: target 1 G12A,G13C (mixed)
RNA 1: CACCCGUGCAAAAAUGCAGGGGUCUAAAACUGAGCGGAUAACCUCUCUAUGG
RNA 2: GGGAAUGGAUCCACAUCUACGAAUUCGUACCAUAGAGACAUUAUCCGCUCACCGAGAUCGGAAGAGCACACGU
B25: target 1 insA 3' of 22,insU 3' of 12 (mixed)
RNA 1: CACCCGUGCAAAAAUGCAGGGGUCUAAAACUGAGCGGAUAACCUCUCUAUGG
RNA 2: GGGAAUGGAUCCACAUCUACGAAUUCGUACACAUAGAGAGGUUUAUCCGCUCACCGAGAUCGGAAGAGCACACGU
B26: target 1 C2U,G12U (mixed)
RNA 1: CACCCGUGCAAAAAUGCAGGGGUCUAAAACUGAGCGGAUAACCUCUCUAUGG
RNA 2: GGGAAUGGAUCCACAUCUACGAAUUCGUACCAUAGAGAGUUUAUCCGCUUACCGAGAUCGGAAGAGCACACGU
B27: target 1 insU 3' of 21,insG 3' of 16 (mixed)
RNA 1: CACCCGUGCAAAAAUGCAGGGGUCUAAAACUGAGCGGAUAACCUCUCUAUGG
RNA 2: GGGAAUGGAUCCACAUCUACGAAUUCGUACCUAUAGAGGAGGUUAUCCGCUCACCGAGAUCGGAAGAGCACACGU
B28: target 1 insU 3' of 18,insA 3' of 5 (mixed)
RNA 1: CACCCGUGCAAAAAUGCAGGGGUCUAAAACUGAGCGGAUAACCUCUCUAUGG
RNA 2: GGGAAUGGAUCCACAUCUACGAAUUCGUACCAUAUGAGAGGUUAUCCGACUCACCGAGAUCGGAAGAGCACACGU

Biological target: T1, EsCas13d, nuclease-dead
Assay: crRNA (strand 1, pre-loaded); Mg2+; 40 mM Tris-HCl pH 7.5, 150 mM NaCl, 6 mM MgCl2, 1 mM DTT, 0.1% Tween-20, 0.2 mg/ml BSA; 25 C; 10 min per concentration, then washed
Conditions: tags: His6-TwinStrep-SUMO cleaved; N-terminal SNAP kept (SNAP-Surface 488); label: 3' end held by stalled T7 RNA polymerase

Binder | Kd
B1 | 13.1 ± 0.8 nM
B2 | 14.7 ± 0.9 nM
B3 | 61 ± 12 nM
B4 | 38 ± 4 nM
B5 | 23.4 ± 2.7 nM
B6 | 90 ± 40 nM
B7 | 42 ± 6 nM
B8 | 13.5 ± 1 nM
B9 | 42 ± 4 nM
B10 | 49 ± 11 nM
B11 | 68 ± 16 nM
B12 | 10.9 ± 0.5 nM
B13 | 81 ± 28 nM
B14 | 56 ± 6 nM
B15 | 95 ± 22 nM
B16 | 25 ± 5 nM
B17 | ~60 nM
B18 | 8.5 ± 1.1 nM
B19 | 7.2 ± 0.33 nM
B20 | 29.4 ± 2.5 nM
B21 | 34 ± 7 nM
B22 | 52 ± 7 nM
B23 | 10.5 ± 0.6 nM
B24 | ~90 nM
B25 | 11.5 ± 1.1 nM
B26 | 10.5 ± 0.5 nM
B27 | 87 ± 23 nM
B28 | 23.7 ± 2.6 nM
